Holding throughout (experiment): cell-based or functional assay
The target in test [1] is human GLP-1 receptor (GLP-1R) (human, UniProt P43220 24-463).
Target sequence in this assay (P43220 24-463): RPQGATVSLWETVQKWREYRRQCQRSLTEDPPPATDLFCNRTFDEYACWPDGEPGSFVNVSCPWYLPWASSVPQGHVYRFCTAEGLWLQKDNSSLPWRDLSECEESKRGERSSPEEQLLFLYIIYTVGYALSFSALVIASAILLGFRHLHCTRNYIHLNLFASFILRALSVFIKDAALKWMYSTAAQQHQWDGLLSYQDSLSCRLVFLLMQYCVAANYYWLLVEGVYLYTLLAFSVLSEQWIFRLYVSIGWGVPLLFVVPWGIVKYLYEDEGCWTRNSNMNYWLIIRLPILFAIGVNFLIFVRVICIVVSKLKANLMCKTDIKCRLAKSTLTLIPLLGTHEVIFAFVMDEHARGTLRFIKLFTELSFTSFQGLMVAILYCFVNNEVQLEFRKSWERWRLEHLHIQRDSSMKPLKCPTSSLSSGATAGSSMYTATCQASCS
Test [2] has as its target human glucagon receptor (GCGR) (human, UniProt P47871 26-477).
Test [3] has as its target T1, human glucagon receptor (GCGR) (human, UniProt P47871 26-477). This is another data set of the same source.
Test [4] concerns the target T2, human GLP-1 receptor (GLP-1R) (human, UniProt P43220 24-463). This is another data set of the same source.
T2 sequence (P43220 24-463): as above
The target of test [5] is T3, hGIPR (human, UniProt P48546 22-466, limits assumed).
T3 sequence (looked up): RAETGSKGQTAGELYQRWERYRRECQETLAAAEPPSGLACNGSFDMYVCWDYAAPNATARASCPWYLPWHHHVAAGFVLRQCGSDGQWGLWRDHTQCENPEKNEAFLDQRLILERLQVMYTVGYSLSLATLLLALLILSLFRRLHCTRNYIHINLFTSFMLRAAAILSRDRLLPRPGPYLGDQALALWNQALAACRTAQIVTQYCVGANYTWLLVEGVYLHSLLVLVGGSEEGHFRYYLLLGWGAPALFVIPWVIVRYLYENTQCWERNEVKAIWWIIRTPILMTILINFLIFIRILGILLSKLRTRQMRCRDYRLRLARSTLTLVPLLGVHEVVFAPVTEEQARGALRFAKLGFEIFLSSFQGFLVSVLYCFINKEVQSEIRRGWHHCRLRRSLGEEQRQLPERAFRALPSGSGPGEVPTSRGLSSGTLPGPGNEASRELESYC

Test [6] has as its target T1, human glucagon receptor (GCGR). This is another data set of the same source.
Test [7] deals with T2, human GLP-1 receptor (GLP-1R). This is another data set of the same source.

Where no end group is shown, it is not given here. [ ]: non-standard residue; d: D form. Aib = CC(C)(N)C(=O)O Bounds are passed on as bounds.

B1: Compound A2 (peptide)
peptide: YSHGTFTSDYSKYLD[Aib]KSAQEFV[Aib]WLEDEPSSGAPPPS-OH
modifications: N-terminus assumed
SMILES: CC(C)C[C@H](NC(=O)[C@H](Cc1ccc(O)cc1)NC(=O)[C@H](CCCCN)NC(=O)[C@H](CO)NC(=O)[C@H](Cc1ccc(O)cc1)NC(=O)[C@H](CC(=O)O)NC(=O)[C@H](CO)NC(=O)[C@@H](NC(=O)[C@H](Cc1ccccc1)NC(=O)[C@@H](NC(=O)CNC(=O)[C@H](Cc1c[nH]cn1)NC(=O)[C@H](CO)NC(=O)[C@@H](N)Cc1ccc(O)cc1)[C@@H](C)O)[C@@H](C)O)C(=O)N[C@@H](CC(=O)O)C(=O)NC(C)(C)C(=O)N[C@@H](CCCCN)C(=O)N[C@@H](CO)C(=O)N[C@@H](C)C(=O)N[C@@H](CCC(N)=O)C(=O)N[C@@H](CCC(=O)O)C(=O)N[C@@H](Cc1ccccc1)C(=O)N[C@H](C(=O)NC(C)(C)C(=O)N[C@@H](Cc1c[nH]c2ccccc12)C(=O)N[C@@H](CC(C)C)C(=O)N[C@@H](CCC(=O)O)C(=O)N[C@@H](CC(=O)O)C(=O)N[C@@H](CCC(=O)O)C(=O)N1CCC[C@H]1C(=O)N[C@@H](CO)C(=O)N[C@@H](CO)C(=O)NCC(=O)N[C@@H](C)C(=O)N1CCC[C@H]1C(=O)N1CCC[C@H]1C(=O)N1CCC[C@H]1C(=O)N[C@@H](CO)C(=O)O)C(C)C
For the molecule B1, the “hGLP1 pEC50 (cAMP) mean (n = 9): 11 point curve starting at 500 uM” value (“hGLP1 pEC50 (cAMP) mean” below) in test [1] was 5.4 pEC50. The “hGCGR pEC50 (cAMP) mean (n = 9): 11 point curve starting at 1 uM” value (“hGCGR pEC50 (cAMP) mean” for short) in test [2] amounted to 11.7 pEC50.

B2: Compound A1 (peptide)
peptide: YSHGTFTSDYSKYLD[Aib]KYAQEFV[Aib]WLEDEPSSGAPPPS-OH
modifications: N-terminus assumed
SMILES: CC(C)C[C@H](NC(=O)[C@H](Cc1ccc(O)cc1)NC(=O)[C@H](CCCCN)NC(=O)[C@H](CO)NC(=O)[C@H](Cc1ccc(O)cc1)NC(=O)[C@H](CC(=O)O)NC(=O)[C@H](CO)NC(=O)[C@@H](NC(=O)[C@H](Cc1ccccc1)NC(=O)[C@@H](NC(=O)CNC(=O)[C@H](Cc1c[nH]cn1)NC(=O)[C@H](CO)NC(=O)[C@@H](N)Cc1ccc(O)cc1)[C@@H](C)O)[C@@H](C)O)C(=O)N[C@@H](CC(=O)O)C(=O)NC(C)(C)C(=O)N[C@@H](CCCCN)C(=O)N[C@@H](Cc1ccc(O)cc1)C(=O)N[C@@H](C)C(=O)N[C@@H](CCC(N)=O)C(=O)N[C@@H](CCC(=O)O)C(=O)N[C@@H](Cc1ccccc1)C(=O)N[C@H](C(=O)NC(C)(C)C(=O)N[C@@H](Cc1c[nH]c2ccccc12)C(=O)N[C@@H](CC(C)C)C(=O)N[C@@H](CCC(=O)O)C(=O)N[C@@H](CC(=O)O)C(=O)N[C@@H](CCC(=O)O)C(=O)N1CCC[C@H]1C(=O)N[C@@H](CO)C(=O)N[C@@H](CO)C(=O)NCC(=O)N[C@@H](C)C(=O)N1CCC[C@H]1C(=O)N1CCC[C@H]1C(=O)N1CCC[C@H]1C(=O)N[C@@H](CO)C(=O)O)C(C)C
In the case of B2, the “GluR pEC 50” value in test [3] was found to be 10.6 pEC50. In test [4], the “GLP-1R pEC 50” value is less than 6 pEC50. Further, the “Human in vitro Potency (pEC50), hGIPR” value in test [5] is less than 5 pEC50. Further, the “Human in vitro Potency (pEC50), hGCGR” value in test [6] was determined as 12.3 pEC50. The “Human in vitro Potency (pEC50), hGLP-1R” value in test [7] amounted to 5.2 pEC50.

B3: Compound A1 (peptide)
peptide: YSHGTFTSDYSKYLD[Aib]KYAQEFV[Aib]WLEDEPSSGAPPPS-OH
modifications: N-terminus assumed
SMILES: CC(C)C[C@H](NC(=O)[C@H](Cc1ccc(O)cc1)NC(=O)[C@H](CCCCN)NC(=O)[C@H](CO)NC(=O)[C@H](Cc1ccc(O)cc1)NC(=O)[C@H](CC(=O)O)NC(=O)[C@H](CO)NC(=O)[C@@H](NC(=O)[C@H](Cc1ccccc1)NC(=O)[C@@H](NC(=O)CNC(=O)[C@H](Cc1c[nH]cn1)NC(=O)[C@H](CO)NC(=O)[C@@H](N)Cc1ccc(O)cc1)[C@@H](C)O)[C@@H](C)O)C(=O)N[C@@H](CC(=O)O)C(=O)NC(C)(C)C(=O)N[C@@H](CCCCN)C(=O)N[C@@H](Cc1ccc(O)cc1)C(=O)N[C@@H](C)C(=O)N[C@@H](CCC(N)=O)C(=O)N[C@@H](CCC(=O)O)C(=O)N[C@@H](Cc1ccccc1)C(=O)N[C@H](C(=O)NC(C)(C)C(=O)N[C@@H](Cc1c[nH]c2ccccc12)C(=O)N[C@@H](CC(C)C)C(=O)N[C@@H](CCC(=O)O)C(=O)N[C@@H](CC(=O)O)C(=O)N[C@@H](CCC(=O)O)C(=O)N1CCC[C@H]1C(=O)N[C@@H](CO)C(=O)N[C@@H](CO)C(=O)NCC(=O)N[C@@H](C)C(=O)N1CCC[C@H]1C(=O)N1CCC[C@H]1C(=O)N1CCC[C@H]1C(=O)N[C@@H](CO)C(=O)O)C(C)C
As for B3, the “hGLP1 pEC50 (cAMP) mean” value in test [1] worked out at 5.2 pEC50. Besides, the “hGCGR pEC50 (cAMP) mean” value in test [2] worked out at 12.3 pEC50.

B4: Compound A3 (peptide)
peptide: YSQGTFTSDYSKYLDAARAQEFVKWLEDEPKSKSPPPS-NH2
For B4, in test [1], the “hGLP1 pEC50 (cAMP) mean” value is 6.7 pEC50. Further, the “hGCGR pEC50 (cAMP) mean” value in test [2] was 12.1 pEC50.

B5: Compound A6 (peptide)
peptide: WSQGTFTSDYSKYLD[Aib]KRAQEFV[Aib]WLEDEPSSGAPPPS-OH
modifications: N-terminus assumed
SMILES: CC(C)C[C@H](NC(=O)[C@H](Cc1ccc(O)cc1)NC(=O)[C@H](CCCCN)NC(=O)[C@H](CO)NC(=O)[C@H](Cc1ccc(O)cc1)NC(=O)[C@H](CC(=O)O)NC(=O)[C@H](CO)NC(=O)[C@@H](NC(=O)[C@H](Cc1ccccc1)NC(=O)[C@@H](NC(=O)CNC(=O)[C@H](CCC(N)=O)NC(=O)[C@H](CO)NC(=O)[C@@H](N)Cc1c[nH]c2ccccc12)[C@@H](C)O)[C@@H](C)O)C(=O)N[C@@H](CC(=O)O)C(=O)NC(C)(C)C(=O)N[C@@H](CCCCN)C(=O)N[C@@H](CCCNC(=N)N)C(=O)N[C@@H](C)C(=O)N[C@@H](CCC(N)=O)C(=O)N[C@@H](CCC(=O)O)C(=O)N[C@@H](Cc1ccccc1)C(=O)N[C@H](C(=O)NC(C)(C)C(=O)N[C@@H](Cc1c[nH]c2ccccc12)C(=O)N[C@@H](CC(C)C)C(=O)N[C@@H](CCC(=O)O)C(=O)N[C@@H](CC(=O)O)C(=O)N[C@@H](CCC(=O)O)C(=O)N1CCC[C@H]1C(=O)N[C@@H](CO)C(=O)N[C@@H](CO)C(=O)NCC(=O)N[C@@H](C)C(=O)N1CCC[C@H]1C(=O)N1CCC[C@H]1C(=O)N1CCC[C@H]1C(=O)N[C@@H](CO)C(=O)O)C(C)C
As to B5, the “hGLP1 pEC50 (cAMP) mean” value in test [1] turned out to be 5.3 pEC50. Also, the “hGCGR pEC50 (cAMP) mean” value in test [2] was determined as 11.7 pEC50.

B6: Compound A4 (peptide)
peptide: YSHGTFTSDYSKYLD[Aib]KRAQEFVIWLEDEPSSGAPPPS-OH
modifications: N-terminus assumed
SMILES: CC[C@H](C)[C@H](NC(=O)[C@@H](NC(=O)[C@H](Cc1ccccc1)NC(=O)[C@H](CCC(=O)O)NC(=O)[C@H](CCC(N)=O)NC(=O)[C@H](C)NC(=O)[C@H](CCCNC(=N)N)NC(=O)[C@H](CCCCN)NC(=O)C(C)(C)NC(=O)[C@H](CC(=O)O)NC(=O)[C@H](CC(C)C)NC(=O)[C@H](Cc1ccc(O)cc1)NC(=O)[C@H](CCCCN)NC(=O)[C@H](CO)NC(=O)[C@H](Cc1ccc(O)cc1)NC(=O)[C@H](CC(=O)O)NC(=O)[C@H](CO)NC(=O)[C@@H](NC(=O)[C@H](Cc1ccccc1)NC(=O)[C@@H](NC(=O)CNC(=O)[C@H](Cc1c[nH]cn1)NC(=O)[C@H](CO)NC(=O)[C@@H](N)Cc1ccc(O)cc1)[C@@H](C)O)[C@@H](C)O)C(C)C)C(=O)N[C@@H](Cc1c[nH]c2ccccc12)C(=O)N[C@@H](CC(C)C)C(=O)N[C@@H](CCC(=O)O)C(=O)N[C@@H](CC(=O)O)C(=O)N[C@@H](CCC(=O)O)C(=O)N1CCC[C@H]1C(=O)N[C@@H](CO)C(=O)N[C@@H](CO)C(=O)NCC(=O)N[C@@H](C)C(=O)N1CCC[C@H]1C(=O)N1CCC[C@H]1C(=O)N1CCC[C@H]1C(=O)N[C@@H](CO)C(=O)O
For B6, the “hGLP1 pEC50 (cAMP) mean” value in test [1] is less than 5 pEC50. Besides, in test [2], the “hGCGR pEC50 (cAMP) mean” value was found to be 11.8 pEC50.

B7: Compound A5 (peptide)
peptide: YSHGTFTSDYSKYLDSARAQEFVKWLEDEPSSGAPPPS-NH2
For B7, in test [1], the “hGLP1 pEC50 (cAMP) mean” value came to 5.8 pEC50. In test [2], the “hGCGR pEC50 (cAMP) mean” value came to 11.8 pEC50.
